Measured values published in patent publication US20240270861A1 (DRAGONFLY THERAPEUTICS, published 2024).
Residue numbers refer to the chain shown, from its start. One block for each binder: values may come before it.

How the values were obtained:
cynomolgus CD16 = biological target: T1, cynomolgus CD16 (cynomolgus monkey, UniProt Q8SPW2 17-208); test: SPR, kinetics fit
T1 construct: also called cyno CD16; FcγRIII (cynomolgus)

human CD16a V158 = biological target: T2, human CD16a V158 (human, UniProt P08637 17-208); test: SPR, qualitative (Table 40 not given)
T2 construct: Recombinant receptor in SPR; in the cytotoxicity assays expressed on KHYG-1-CD16aV cells; also called hCD16aV; hCD16a V158
T2 sequence (P08637 17-208 F176V limits assumed): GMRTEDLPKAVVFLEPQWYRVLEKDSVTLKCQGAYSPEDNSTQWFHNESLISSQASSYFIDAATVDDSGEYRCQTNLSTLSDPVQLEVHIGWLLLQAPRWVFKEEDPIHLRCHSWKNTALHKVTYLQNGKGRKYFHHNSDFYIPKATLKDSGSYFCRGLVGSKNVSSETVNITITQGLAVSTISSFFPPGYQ

[1] = biological target: T3, hBAFF-R-hFc-His fusion protein (human, UniProt Q96RJ3 1-78, biotinylated where used as yeast display probe); test: yeast display flow cytometry after challenge: 100 pM hBAFFR-Fc biotin for 1hr at RT, then 1 mM nonbiotinylated hBAFFR-Fc (as printed on the sheet)
T3 construct: also called hBAFFR-Fc; biotinylated hBAFF-R-hFc-His

T1 sequence (Q8SPW2 17-208 limits assumed): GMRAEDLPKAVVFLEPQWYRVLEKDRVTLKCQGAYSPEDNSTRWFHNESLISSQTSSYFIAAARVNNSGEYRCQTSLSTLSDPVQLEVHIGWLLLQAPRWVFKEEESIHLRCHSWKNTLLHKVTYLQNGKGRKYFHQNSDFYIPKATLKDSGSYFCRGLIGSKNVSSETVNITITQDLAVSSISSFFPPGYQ

Kd (cynomolgus CD16): 232 nM
B1: AB1424/AB1612 F3′ TriNKET (bispecific antibody, human IgG1, kappa)
chain: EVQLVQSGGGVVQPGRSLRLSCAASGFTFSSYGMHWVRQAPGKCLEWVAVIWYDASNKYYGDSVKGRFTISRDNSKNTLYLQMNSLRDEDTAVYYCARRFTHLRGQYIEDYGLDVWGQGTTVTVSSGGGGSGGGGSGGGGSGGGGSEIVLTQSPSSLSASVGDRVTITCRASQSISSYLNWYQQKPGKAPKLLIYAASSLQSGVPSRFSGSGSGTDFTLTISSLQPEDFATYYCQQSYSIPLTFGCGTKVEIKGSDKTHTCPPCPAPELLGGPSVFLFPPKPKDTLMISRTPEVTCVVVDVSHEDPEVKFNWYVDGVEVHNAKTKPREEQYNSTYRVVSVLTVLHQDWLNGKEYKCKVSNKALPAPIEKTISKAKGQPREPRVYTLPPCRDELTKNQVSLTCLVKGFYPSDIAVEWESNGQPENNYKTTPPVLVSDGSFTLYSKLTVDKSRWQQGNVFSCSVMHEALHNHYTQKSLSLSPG
heavy: EVQLVESGGGLVKPGGSLRLSCAASGFTFSSYSMNWVRQAPGKGLEWVSSISSSSSYIYYADSVKGRFTISRDNAKNSLYLQMNSLRAEDTAVYYCARGAPIGAAAGWFDPWGQGTLVTVSSASTKGPSVFPLAPSSKSTSGGTAALGCLVKDYFPEPVTVSWNSGALTSGVHTFPAVLQSSGLYSLSSVVTVPSSSLGTQTYICNVNHKPSNTKVDKKVEPKSCDKTHTCPPCPAPELLGGPSVFLFPPKPKDTLMISRTPEVTCVVVDVSHEDPEVKFNWYVDGVEVHNAKTKPREEQYNSTYRVVSVLTVLHQDWLNGKEYKCKVSNKALPAPIEKTISKAKGQPREPQVCTLPPSRDELTENQVSLTCLVKGFYPSDIAVEWESNGQPENNYKTTPPVLDSDGSFFLYSWLTVDKSRWQQGNVFSCSVMHEALHNHYTQKSLSLSPG
light: DIQMTQSPSSVSASVGDRVTITCRASQGISSWLAWYQQKPGKAPKLLIYAASSLQSGVPSRFSGSGSGTDFTLTISSLQPEDFATYYCQQGVSFPRTFGGGTKVEIKRTVAAPSVFIFPPSDEQLKSGTASVVCLLNNFYPREAKVQWKVDNALQSGNSQESVTEQDSKDSTYSLSSTLTLSKADYEKHKVYACEVTHQGLSSPVTKSFNRGEC
notes: Chain S anti-BAFF-R scFv-CH2-CH3, Chain H and Chain L anti-NKG2D A49MI Fab; also called AB1612-002

binding result (human CD16a V158): no binding
B2: AB1424/AB1612 F3′ TriNKET FcγRsi (bispecific antibody)
chain: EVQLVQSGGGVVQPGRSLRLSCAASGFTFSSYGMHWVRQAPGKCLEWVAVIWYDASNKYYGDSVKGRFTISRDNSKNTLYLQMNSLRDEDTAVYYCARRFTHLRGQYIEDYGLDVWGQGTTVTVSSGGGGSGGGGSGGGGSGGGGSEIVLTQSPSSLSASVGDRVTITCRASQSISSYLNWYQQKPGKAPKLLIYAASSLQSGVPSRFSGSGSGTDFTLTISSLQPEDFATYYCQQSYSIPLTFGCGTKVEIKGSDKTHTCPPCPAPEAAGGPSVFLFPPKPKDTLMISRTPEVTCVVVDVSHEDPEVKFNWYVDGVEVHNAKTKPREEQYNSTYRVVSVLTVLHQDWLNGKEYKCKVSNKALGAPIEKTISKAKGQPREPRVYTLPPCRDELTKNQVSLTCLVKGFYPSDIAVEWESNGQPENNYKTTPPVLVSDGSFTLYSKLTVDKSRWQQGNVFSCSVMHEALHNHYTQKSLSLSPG
heavy: B1 heavy with L239A, L240A, P334G
light: B1 light
notes: Positions are EU numbers, not positions on the entries; also called AB1424/AB1612 F3′ TriNKET-Fc-si; AB1424/AB1612 F3′ TriNKET-Fc silenced

Iana (drawn gate) [1]: 23.4 % (unit not printed)
B3: AB1080scFv displayed on yeast (scFv, V domains shown)
VH: EVQLVQSGGGVVQPGRSLRLSCAASGFTFSSYGMHWVRQAPGKCLEWVAVIWYDASNKYYGDSVKGRFTISRDNSKNTLYLQMNSLRDEDTAVYYCARRFTHLRGWYIEDYGLDVWGQGTTVTVSS
VL: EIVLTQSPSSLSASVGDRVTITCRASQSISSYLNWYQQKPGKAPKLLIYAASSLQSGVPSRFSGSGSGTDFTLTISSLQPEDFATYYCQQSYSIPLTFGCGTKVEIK
notes: scFv on yeast

Iana (drawn gate) [1]: 7.4 % (unit not printed)
B4: AB1084scFv displayed on yeast (scFv, V domains shown)
VH: B3 VH with S31M, H102R
VL: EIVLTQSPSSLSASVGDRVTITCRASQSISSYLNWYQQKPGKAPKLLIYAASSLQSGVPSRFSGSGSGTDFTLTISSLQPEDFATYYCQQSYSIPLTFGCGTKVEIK
notes: scFv on yeast

Iana (drawn gate) [1]: 27.2 % (unit not printed)
B5: AB1081scFv displayed on yeast (scFv, V domains shown)
VH: B3 VH with T28A, A55E, K76R, H102N, Y107I
VL: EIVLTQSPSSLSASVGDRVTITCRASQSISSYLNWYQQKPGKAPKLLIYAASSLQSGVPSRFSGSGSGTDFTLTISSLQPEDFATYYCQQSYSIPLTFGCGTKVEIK
notes: scFv on yeast
